Results: US20160185832A1

Tests used:
[1] = target: microtubule network of cultured human cells (hTERT-RPE1, 293T) (human) (UniProt P68363); assay: cell-based or functional assay
[2] = target: pure, pre-polymerized, taxol-stabilized microtubules of bovine tubulin (Cytoskeleton) (bovine) (UniProt P81947); assay: in vitro microtubule co-sedimentation, percent of construct in the microtubule pellet (FIG. 4D)
[3] = target: microtubules polymerized in mouse brain homogenate (mouse) (UniProt P05213); assay: microtubule co-sedimentation from mouse brain homogenate, western blot (FIG. 6F)
Chain of microtubules polymerized in mouse brain homogenate (mouse) (P05213 whole entry, chain 1 of 2): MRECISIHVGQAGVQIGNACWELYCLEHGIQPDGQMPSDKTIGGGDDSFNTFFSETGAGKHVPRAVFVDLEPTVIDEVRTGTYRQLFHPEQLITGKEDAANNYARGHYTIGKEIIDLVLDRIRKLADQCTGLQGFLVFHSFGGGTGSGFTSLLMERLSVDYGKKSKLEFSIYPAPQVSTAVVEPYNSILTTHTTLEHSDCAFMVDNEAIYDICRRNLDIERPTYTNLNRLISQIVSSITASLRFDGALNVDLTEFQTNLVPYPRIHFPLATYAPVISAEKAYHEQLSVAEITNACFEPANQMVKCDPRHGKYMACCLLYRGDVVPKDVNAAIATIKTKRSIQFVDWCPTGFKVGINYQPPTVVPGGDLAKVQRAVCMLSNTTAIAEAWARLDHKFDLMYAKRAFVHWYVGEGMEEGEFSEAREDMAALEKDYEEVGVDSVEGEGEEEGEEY
Chain of microtubules polymerized in mouse brain homogenate (mouse) (Q9CWF2 whole entry, chain 2 of 2, further chain): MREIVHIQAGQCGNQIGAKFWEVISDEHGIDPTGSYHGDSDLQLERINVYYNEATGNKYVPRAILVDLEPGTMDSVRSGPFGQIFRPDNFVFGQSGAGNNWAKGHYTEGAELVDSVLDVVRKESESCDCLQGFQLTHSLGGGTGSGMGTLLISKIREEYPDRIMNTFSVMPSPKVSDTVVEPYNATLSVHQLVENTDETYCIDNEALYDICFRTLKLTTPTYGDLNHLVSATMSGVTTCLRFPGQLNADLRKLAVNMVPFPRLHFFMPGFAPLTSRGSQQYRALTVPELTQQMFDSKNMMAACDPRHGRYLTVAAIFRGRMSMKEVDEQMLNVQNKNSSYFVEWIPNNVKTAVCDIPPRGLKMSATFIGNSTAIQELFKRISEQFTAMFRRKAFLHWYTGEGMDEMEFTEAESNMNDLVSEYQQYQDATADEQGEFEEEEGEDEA

Chain of microtubule network of cultured human cells (hTERT-RPE1, 293T) (human) (P68363 whole entry, chain 1 of 2): as the sequence (P05213 whole entry, chain 1 of 2) above
Chain of microtubule network of cultured human cells (hTERT-RPE1, 293T) (human) (P07437 whole entry, chain 2 of 2, further chain): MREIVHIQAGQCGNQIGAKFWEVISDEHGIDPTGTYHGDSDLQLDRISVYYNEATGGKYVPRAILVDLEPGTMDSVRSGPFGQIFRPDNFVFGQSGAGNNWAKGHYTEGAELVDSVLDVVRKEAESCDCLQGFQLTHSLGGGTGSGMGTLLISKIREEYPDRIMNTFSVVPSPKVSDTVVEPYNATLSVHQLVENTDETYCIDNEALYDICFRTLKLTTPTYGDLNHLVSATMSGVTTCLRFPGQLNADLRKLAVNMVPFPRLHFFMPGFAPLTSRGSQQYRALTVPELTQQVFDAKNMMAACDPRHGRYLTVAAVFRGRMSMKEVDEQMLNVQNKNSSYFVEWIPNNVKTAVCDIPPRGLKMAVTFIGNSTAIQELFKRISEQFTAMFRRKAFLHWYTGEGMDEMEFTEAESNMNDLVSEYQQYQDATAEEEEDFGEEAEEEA
Chain of pure, pre-polymerized, taxol-stabilized microtubules of bovine tubulin (Cytoskeleton) (bovine) (P81947 whole entry, chain 1 of 2): as the sequence (P05213 whole entry, chain 1 of 2) above
Chain of pure, pre-polymerized, taxol-stabilized microtubules of bovine tubulin (Cytoskeleton) (bovine) (Q6B856 whole entry, chain 2 of 2, further chain): as the sequence (Q9CWF2 whole entry, chain 2 of 2, further chain) above

percent of transfected cells with increased microtubule acetylation and bundling [1] | percent of transfected hTERT-RPE1 cells with a fibrillar localization pattern [1] | percent associated with microtubules [2] | percent associated with microtubules [3] | Substance
40% | 10% | < 50% | – | GFP fusion of full length human CEP290 (aa 1-2479), O15078 1-2479
– | – | – | 60% | full length wild type (WT) mouse Cep290 from mouse brain homogenate, Q6A078 1-2472
